According to patent publication US6610541B2, “Recombinant, active caspases and uses thereof” (Thomas Jefferson University, priority 1998, dated 2003):

How the values were obtained:
rev-caspase-3 [1] = target: T1, rev-caspase-3 (Homo sapiens, UniProt P42574); test: Inhibition of rev-caspase-3 induced apoptosis in transfected MCF-7 cells; format: cell-based; parameters: T7-tag (15 residues) (N); made in house; settings: co-transfection with 4-fold expression construct
T1 sequence (P42574 with tags, fused parts or gaps): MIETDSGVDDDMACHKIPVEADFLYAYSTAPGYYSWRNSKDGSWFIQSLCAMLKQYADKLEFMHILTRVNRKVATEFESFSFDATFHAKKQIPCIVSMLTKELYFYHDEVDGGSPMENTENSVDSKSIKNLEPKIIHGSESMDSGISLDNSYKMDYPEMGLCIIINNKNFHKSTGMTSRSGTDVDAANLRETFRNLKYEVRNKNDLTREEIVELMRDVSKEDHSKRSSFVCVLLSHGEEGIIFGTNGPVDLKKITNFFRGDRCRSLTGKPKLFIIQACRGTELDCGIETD
Protocol: (§1) FIGS. 4A and B are bar diagrams representing the ability of rev-caspase-3 and -6 to induce apoptosis in MCF-7 cells. MCF-7 cells were transiently transfected with either rev-caspase-3 (FIG. 4A), or rev-caspase-6 (FIG. 4B) expression constructs in combination with 4-fold of CrmA, p35 or Bcl-2 expression constructs, or 20 μM zVAD-fmk. Cells transfected with an empty vector or the wild-type caspase-3 or -6 were used as controls.
(§2) To express the rev-caspases in mammalian cells and assay their apoptotic activity, they were amplified with the T7-tag primer and the LS-reverse primers using the pET28a constructs as templates, and subcloned into the mammalian double expression vector pRSC-LacZ (MacFarlane et al., J. Biol. Chem., 272: 25417-25420, 1997; Tsang et al., Bio/Technology, 22: 68, 1997). This vector allows the expression of lacZ under the Rous Sarcoma virus promoter, and the test cDNA under the CMV promoter. To assay for apoptosis, MCF-7 or 293 cells were transfected, using the method commercially available as the Lipofect Amine method (Life Technologies, Inc.), with the pRSC-LacZ constructs in the presence or absence of different apoptosis-inhibitors. 30 h after transfection cells were stained with β-galactosidase and examined for morphological signs of apoptosis. […]

rev-caspase-6 [2] = target: T2, rev-caspase-6 (Homo sapiens, UniProt P55212); test: Inhibition of rev-caspase-6 induced apoptosis in transfected MCF-7 cells; format: cell-based; parameters: T7-tag (15 residues) (N); made in house; settings: co-transfection with 4-fold expression construct
T2 sequence (P55212 with tags, fused parts or gaps): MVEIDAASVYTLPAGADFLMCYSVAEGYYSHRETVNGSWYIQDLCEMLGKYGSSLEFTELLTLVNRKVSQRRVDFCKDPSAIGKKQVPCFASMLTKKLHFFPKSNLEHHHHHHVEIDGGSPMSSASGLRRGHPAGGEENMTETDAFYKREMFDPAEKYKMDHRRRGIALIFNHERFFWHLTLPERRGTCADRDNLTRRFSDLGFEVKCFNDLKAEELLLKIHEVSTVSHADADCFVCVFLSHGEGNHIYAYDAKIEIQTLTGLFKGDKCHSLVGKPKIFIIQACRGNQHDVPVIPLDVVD
Protocol: as §1, §2

rev-caspase-3 [3] = target: T1, rev-caspase-3; test: Autocatalytic processing of in vitro translated rev-caspase-3 (SDS-PAGE/autoradiography); format: biochemical; parameters: T7-tag (15 residues) (N); made in house; host or cells: in vitro translation in rabbit reticulocyte lysate (TNT Kit, Promega)
Protocol: (§3) FIGS. 2B and C are scanned images of autoradiograms representing SDS-PAGE analysis of the autoprocessing of rev-caspase-3 and -6, respectively in the presence of varying levels of selected caspase inhibitors. Rev-caspase-3 (FIG. 2B) or rev-caspase-6 (FIG. 2C) were in vitro translated in the presence of increasing concentrations of DEVD-CHO […]; (SEQ ID NO:52), or zVAD-fmk (0-5 μM). The translation products were then analyzed as in FIG. 2A. WT, wild-type.
(§4) ^35S-labeled caspases (wild-type and rev-caspases) were obtained by in vitro translation in the presence of ^35S-methionine using a coupled transcription/translation system in rabbit reticulocyte lysate using TNT Kit (Promega) according to the manufacturer's recommendations.
(§5) To test the effect of selected caspase inhibitors on the autocatalytic activity of rev-caspase-3 and 6, the rev-caspases were translated as in Example 3, but in the presence of varying amounts of inhibitors.

rev-caspase-6 [4] = target: T2, rev-caspase-6; test: Autocatalytic processing of in vitro translated rev-caspase-6 (SDS-PAGE/autoradiography); format: biochemical; parameters: T7-tag (15 residues) (N); made in house; host or cells: in vitro translation in rabbit reticulocyte lysate (TNT Kit, Promega)
Protocol: as §3, §4, §5

caspase-6 = target: T3, caspase-6 (Homo sapiens, UniProt P55212); settings: earlier observations, J. Biol. Chem. 271:27099; cited from earlier work
T3 sequence (P55212 24-293): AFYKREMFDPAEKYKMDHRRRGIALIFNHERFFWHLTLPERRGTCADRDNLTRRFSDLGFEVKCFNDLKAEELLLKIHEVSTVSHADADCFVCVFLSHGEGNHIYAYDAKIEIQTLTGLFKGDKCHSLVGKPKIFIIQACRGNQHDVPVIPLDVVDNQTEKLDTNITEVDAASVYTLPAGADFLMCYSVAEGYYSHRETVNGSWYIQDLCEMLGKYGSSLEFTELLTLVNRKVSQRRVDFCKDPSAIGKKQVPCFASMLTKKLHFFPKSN

[5] = target: T4, uncleavable rev-caspase-3 (Homo sapiens, UniProt P42574, D28A/D9A); test: In vitro translation of uncleavable rev-caspase-3: His6-T7-tag processing; format: biochemical; settings: 400 nM DEVD-CHO during in vitro translation
T4 construct: uncleavable rev-caspase-3 (B); made in house; host or cells: in vitro translation in rabbit reticulocyte lysate (TNT Kit, Promega)
T4 sequence (P42574 with tags, fused parts or gaps D9A/D28A): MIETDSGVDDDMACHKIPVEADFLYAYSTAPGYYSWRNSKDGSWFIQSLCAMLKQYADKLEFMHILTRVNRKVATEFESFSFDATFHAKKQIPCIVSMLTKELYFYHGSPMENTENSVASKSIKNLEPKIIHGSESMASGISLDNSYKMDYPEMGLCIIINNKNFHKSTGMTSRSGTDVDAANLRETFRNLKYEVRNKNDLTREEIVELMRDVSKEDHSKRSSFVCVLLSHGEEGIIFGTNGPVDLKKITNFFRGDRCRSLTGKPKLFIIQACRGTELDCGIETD
Description: FIG. 5A is a scanned image of an autoradiogram representing SDS-PAGE analysis of the enzymatic activity of uncleavable rev-caspase-3. Uncleavable rev-caspase-3 was in vitro translated in the absence or the presence of increasing concentrations of DEVD-CHO (SEQ ID NO:52),. The translation product contains a cleavable 35 residues-long His6-T7-tag at its N-terminus. The active site mutant rev-caspase-3 (Rev C/A) was used as a control. The p32 cleavage product without the His6-T7-tag is indicated to the right.
^35S-labeled caspases (wild-type and rev-caspases) were obtained by in vitro translation in the presence of ^35S-methionine using a coupled transcription/translation system in rabbit reticulocyte lysate using TNT Kit (Promega) according to the manufacturer's recommendations. […] Because the in vitro translated products are present at very low concentration in the reaction mixture, the observed cleavage must be attributed to an intramolecular processing within the caspase heterotetramer.
However, to follow the activity of this molecule a cleavable 35 residue long His6-T7-tag N-terminal to the IETD (SEQ ID NO:53) site was introduced (see FIG. 1B). […] Nevertheless, the translated molecule was active as evident from its ability to cleave its T7-tag to form the p32 species (FIG. 5). In the presence of 400 nM DEVD-CHO (SEQ ID NO:52), processing of the T7-tag was inhibited and only the full length p34 species can be seen. […] Thus by mimicking the mature caspase structure, it is possible to design a contiguous active caspase molecules.

MCF-7 cells = test: Induction of apoptosis in transfected MCF-7 cells (round blue apoptotic cells); format: cell-based, human; settings: 30 h after transfection
Protocol: as §1
To express the rev-caspases in mammalian cells and assay their apoptotic activity, they were amplified with the T7-tag primer and the LS-reverse primers using the pET28a constructs as templates, and subcloned into the mammalian double expression vector pRSC-LacZ (MacFarlane et al., J. Biol. Chem., 272: 25417-25420, 1997; Tsang et al., Bio/Technology, 22: 68, 1997). This vector allows the expression of lacZ under the Rous Sarcoma virus promoter, and the test cDNA under the CMV promoter. To assay for apoptosis, MCF-7 or 293 cells were transfected, using the method commercially available as the Lipofect Amine method (Life Technologies, Inc.), with the pRSC-LacZ constructs in the presence or absence of different apoptosis-inhibitors. 30 h after transfection cells were stained with β-galactosidase and examined for morphological signs of apoptosis. The percentage of round blue apoptotic cells (mean±SD) were represented as a function of total blue cells under each condition (n≧3).
To determine the apoptotic activity of rev-caspase-3 and 6 in vivo, the rev-caspases were expressed in human MCF-7 cells, transfected as explained above in Example 2.

lamin A = test: Cleavage of in vitro translated lamin A C-terminus by bacterially expressed caspases; format: biochemical; settings: BL-21 bacterial extracts, 2 h at 37° C.
Protocol: FIGS. 3A and B are scanned images representing the SDS-PAGE analysis of the ability of rev-caspase-3 (imaged by western blot) and -6 (imaged by autoradiogram) to cleave PARP and lamin, respectively. In FIG. 3A purified human PARP was incubated with buffer (lane 1) or BL-21 bacterial extracts prepared from bacteria transformed with caspase-3 (lane 2), rev-caspase-3 (lane 3), caspase-6 (lane 4), rev-caspase-6 (lane 5) constructs or empty pET28a vector (lane 6) for 2 h at 37° C. The reaction products were then analyzed by SDS-PAGE and Western blotting with anti-human PARP antibody. In FIG. 3B a cDNA encoding the C-terminus of lamin A (amino acids) which contain the caspase-6 cleavage site (VEIDA); (SEQ ID NO:116), was amplified by PCR and in vitro translated in the presence of ^35S-methionine. The labeled product was incubated with buffer (lane 1) or the BL-21 bacterial extracts listed above for 2 h at 37° C., and then analyzed by SDS-PAGE and autoradiography. The cleavage products are indicated to the right.
At limited caspase concentrations, poly(ADP) ribose polymerase (PARP) is specifically cleaved by caspase-3 and 7 but not other caspases. Similarly, lamin is specifically cleaved by caspase-6 but not other caspases. […]

[6] = at the concentration used (zVAD-fmk 0-5 μM), p35 data not shown

Bc1-2: overexpressed protein that protects against different forms of apoptosis [reference compound]
effect of overexpression on apoptotic activity of rev-caspase-3 (rev-caspase-3 [1]): did not significantly reduce | effect of overexpression on apoptotic activity of rev-caspase-6 (rev-caspase-6 [2]): did not significantly reduce

DEVD-CHO [reference compound]
inhibition of the autocatalytic activity of rev-caspase-3 (rev-caspase-3 [3]; at 40-400 nM concentration, inhibitor present during in vitro translation): 50-90% | effect on the autocatalytic activity of rev-caspase-6 (rev-caspase-6 [4]; same concentrations (40-400 nM), inhibitor present during in vitro translation): little effect | inhibition of caspase-6 (caspase-6): poorly inhibited | processing of the T7-tag of uncleavable rev-caspase-3 [5]: inhibited

B1: rev-caspase-6: contiguous caspase-6 with small subunit fused N-terminal to large subunit, VEID cleavage site between them (SEQ ID NO:36) (protein)
chain: MVEIDAASVYTLPAGADFLMCYSVAEGYYSHRETVNGSWYIQDLCEMLGKYGSSLEFTELLTLVNRKVSQRRVDFCKDPSAIGKKQVPCFASMLTKKLHFFPKSNLEHHHHHHVEIDGGSPMSSASGLRRGHPAGGEENMTETDAFYKREMFDPAEKYKMDHRRRGIALIFNHERFFWHLTLPERRGTCADRDNLTRRFSDLGFEVKCFNDLKAEELLLKIHEVSTVSHADADCFVCVFLSHGEGNHIYAYDAKIEIQTLTGLFKGDKCHSLVGKPKIFIIQACRGNQHDVPVIPLDVVD
modifications: OTHER INFORMATION: Rev-Caspase-6 contructed fro m human caspase-6
apoptosis in transfected cells (MCF-7 cells): ~90% | cleavage of lamin (lamin A): efficiently cleaved lamin | autocatalytic processing in the in vitro translation reaction (rev-caspase-6 constructs) (rev-caspase-6 [4]; rabbit reticulocyte lysate, 35S-methionine): able to undergo autocatalytic processing

B2: baculovirus p35: baculovirus p35, which inhibits the activity of most caspases (protein)
chain: MCVIFPVEIDVSQTIIRDCQVDKQTRELVYINKIMNTQLTKPVLMMFNISGPIRSVTRKNNNLRDRIKSKVDEQFDQLERDYSDQMDGFHDSIKYFKDEHYSVSCQNGSVLKSKFAKILKSHDYTDKKSIEAYEKYCLPKLVDERNDYYVAVCVLKPGFENGSNQVLSFEYNPIGNKVIVPFAHEINDTGLYEYDVVAYVDSVQFDGEQFEEFVQSLILPSSFKNSEKVLYYNEASKNKSMIYKALEFTTESSWGKSEKYNWKIFCNGFIYDKKSKVLYVKLHNVTSALNKNVILNTIK
effect of overexpression on apoptotic activity of rev-caspase-3 (rev-caspase-3 [1]): partially protected | inhibitory effect on rev-caspase-3 autocatalytic activity compared with rev-caspase-6 (rev-caspase-3 [3]; [6]): nearly an equal inhibitory effect | inhibitory effect on rev-caspase-6 autocatalytic activity compared with rev-caspase-3 (rev-caspase-6 [4]; [6]): nearly an equal inhibitory effect | effect of overexpression on apoptotic activity of rev-caspase-6 (rev-caspase-6 [2]): partially protected
